The record followed here is patent publication US20240277844A1.

For the assay, the target named is anti-CD3 idiotype ScFv (CAR6) fused to the 28z-CAR-membrane-bound IL-15 construct, on cord blood-derived NK cells. Description: cell-based or functional assay.

As to REGN1979 (bispecific antibody), the Max Activity, CCL5 release (pg/ml), CBNK/CAR6 cells + Ramos/HiBiT was determined as 6.9 pg/mL; the Max Activity, Cytotoxicity (%), CBNK/CAR6 cells + Ramos/HiBiT is 25.5%; the Max Activity, FasL release (pg/ml), CBNK/CAR6 cells + Ramos/HiBiT was determined as 16.4 pg/mL; the Max Activity, Granzyme A release (pg/ml), CBNK/CAR6 cells + Ramos/HiBiT was 643 pg/mL. Besides, the Max Activity, Granzyme B release (pg/ml), CBNK/CAR6 cells + Ramos/HiBiT was found to be 239 pg/mL; the Max Activity, IFNγ release (pg/ml), CBNK/CAR6 cells + Ramos/HiBiT came out at 45.6 pg/mL; the Max Activity, TNFα release (pg/ml), CBNK/CAR6 cells + Ramos/HiBiT was 11.9 pg/mL.
